Results on three sequences are retold here after publication PMC6548965.

pKd: −log10 of the molar value.

In general, pKd refers to the negative decadic logarithm of the Kd, by convention in mol/L.

The data set deals with AP heterodimer (IAP/PLAP) on LoVo cells (human) (UniProt P09923+P05187). As to the kind of experiment: flow cytometry. The conditions noted are these: 4 C, apparent Kd, PBS pH 7.4 (about 137 mM NaCl) with 5 mM MgCl2, 4.5 g/L glucose, 1 mg/mL BSA, 0.1 mg/mL herring sperm DNA, 30 min at 4 C. (Flow cytometry measures light scatter and fluorescence of single cells or particles in a stream.)
Chain of AP heterodimer (IAP/PLAP) on LoVo cells (human) (P09923 20-503, chain 1 of 2): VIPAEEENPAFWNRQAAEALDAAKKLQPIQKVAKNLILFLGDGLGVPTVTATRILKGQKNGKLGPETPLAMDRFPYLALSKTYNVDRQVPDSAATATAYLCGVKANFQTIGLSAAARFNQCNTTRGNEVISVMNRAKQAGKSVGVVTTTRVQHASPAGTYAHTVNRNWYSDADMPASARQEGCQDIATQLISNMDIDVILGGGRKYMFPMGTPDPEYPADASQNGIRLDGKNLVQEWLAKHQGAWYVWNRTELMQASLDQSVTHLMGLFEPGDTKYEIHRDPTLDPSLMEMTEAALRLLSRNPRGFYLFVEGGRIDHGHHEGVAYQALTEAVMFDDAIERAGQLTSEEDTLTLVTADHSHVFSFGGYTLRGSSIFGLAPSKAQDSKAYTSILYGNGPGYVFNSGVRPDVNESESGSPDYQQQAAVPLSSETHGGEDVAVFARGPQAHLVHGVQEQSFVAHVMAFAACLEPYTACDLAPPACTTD
Chain of AP heterodimer (IAP/PLAP) on LoVo cells (human) (P05187 23-506, chain 2 of 2): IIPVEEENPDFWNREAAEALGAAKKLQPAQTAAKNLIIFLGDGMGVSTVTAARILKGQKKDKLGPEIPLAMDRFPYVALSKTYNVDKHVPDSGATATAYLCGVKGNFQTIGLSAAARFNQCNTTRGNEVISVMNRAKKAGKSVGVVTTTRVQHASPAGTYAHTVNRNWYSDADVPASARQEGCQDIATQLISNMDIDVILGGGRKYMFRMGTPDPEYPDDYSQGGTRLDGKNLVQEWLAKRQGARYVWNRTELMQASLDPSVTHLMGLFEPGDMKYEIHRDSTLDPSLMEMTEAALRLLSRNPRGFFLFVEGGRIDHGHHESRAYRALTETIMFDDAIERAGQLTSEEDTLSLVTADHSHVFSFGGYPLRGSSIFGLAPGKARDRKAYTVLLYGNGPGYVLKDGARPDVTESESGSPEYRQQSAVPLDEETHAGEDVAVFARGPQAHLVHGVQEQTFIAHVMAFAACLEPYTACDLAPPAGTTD
For “CAAGGAATAGGGGTCGGTGTGGGTGGTTATGATTGGCTTCCTTG [BG2]”, the negative-log Kd (pKd) is 8.60.

As to “TAAAAAATAGGGGTCGGTGTGGGTGGTTATGATTGGCTTTTTTA [BG4]”, the negative logarithm of the Kd (pKd) is 7.94.

Consider TAGGGGTCGGTGTGGGTGGTTATGATTGGC [BG2c], for which the negative logarithm of the Kd (pKd) is 8.03.
